Reference: PMC3596311, “PTB-Associated Splicing Factor (PSF) Is a PPARγ-Binding Protein and Growth Regulator of Colon Cancer Cells” (PLoS ONE, 2013)

Biological target: T1, PSF, full-length, fused to the GAL4 DNA-binding domain (pFN11A-PSF) (human, UniProt P23246 1-707)
T1 construct: PTB-associated splicing factor (PSF), human, full-length cDNA (GenBank BC051192), 707 amino acids; CheckMate/Flexi Vector Mammalian Two-Hybrid System (Promega), vector pFN11A; also called Gal4-PSF; source: CV-1 cells, transiently transfected, mammalian two-hybrid fusion
T1 sequence (looked up): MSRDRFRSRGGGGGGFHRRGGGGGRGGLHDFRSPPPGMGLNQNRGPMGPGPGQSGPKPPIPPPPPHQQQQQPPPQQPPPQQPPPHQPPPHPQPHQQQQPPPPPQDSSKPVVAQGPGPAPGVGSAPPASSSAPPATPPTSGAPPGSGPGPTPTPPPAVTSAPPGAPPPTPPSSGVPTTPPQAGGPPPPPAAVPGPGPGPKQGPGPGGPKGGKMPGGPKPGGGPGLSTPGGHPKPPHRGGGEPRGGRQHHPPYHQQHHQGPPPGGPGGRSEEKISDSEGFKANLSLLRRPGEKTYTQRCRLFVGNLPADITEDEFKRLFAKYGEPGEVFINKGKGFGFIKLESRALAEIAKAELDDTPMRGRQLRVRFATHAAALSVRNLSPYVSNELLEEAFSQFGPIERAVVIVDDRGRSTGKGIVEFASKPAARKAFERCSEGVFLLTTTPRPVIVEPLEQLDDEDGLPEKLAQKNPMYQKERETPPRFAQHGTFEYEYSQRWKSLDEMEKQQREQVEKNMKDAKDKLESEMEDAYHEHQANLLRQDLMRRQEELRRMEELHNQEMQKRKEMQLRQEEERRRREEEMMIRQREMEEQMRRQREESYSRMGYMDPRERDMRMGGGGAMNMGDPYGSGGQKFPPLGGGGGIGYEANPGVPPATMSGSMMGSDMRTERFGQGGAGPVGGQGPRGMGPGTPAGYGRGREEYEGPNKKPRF
Assay: two-hybrid; mammalian two-hybrid in CV-1 cells: GAL4 DNA-binding domain-PSF (pFN11A) and VP16-PPARγ1 (pFN10A), GAL4-UAS luciferase reporter; also with rosiglitazone 0.1–10 µM, which did not affect the interaction
Details: partners not purified

B1: PPARγ1, full-length, fused to the VP16 activation domain (pFN10A-PPARγ1) (natural protein, UniProt P37231-2 1-477, looked up)
chain: MTMVDTEMPFWPTNFGISSVDLSVMEDHSHSFDIKPFTTVDFSSISTPHYEDIPFTRTDPVVADYKYDLKLQEYQSAIKVEPASPPYYSEKTQLYNKPHEEPSNSLMAIECRVCGDKASGFHYGVHACEGCKGFFRRTIRLKLIYDRCDLNCRIHKKSRNKCQYCRFQKCLAVGMSHNAIRFGRMPQAEKEKLLAEISSDIDQLNPESADLRALAKHLYDSYIKSFPLTKAKARAILTGKTTDKSPFVIYDMNSLMMGEDKIKFKHITPLQEQSKEVAIRIFQGCQFRSVEAVQEITEYAKSIPGFVNLDLNDQVTLLKYGVHEIIYTMLASLMNKDGVLISEGQGFMTREFLKSLRKPFGDFMEPKFEFAVKFNALELDDSDLAIFIAVIILSGDRPGLLNVKPIEDIQDNLLQALELQLKLNHPESSQLFAKLLQKMTDLRQIVTEHVQLLQVIKKTETDMSLHPLLQEIYKDLY
notes: CheckMate/Flexi Vector Mammalian Two-Hybrid System (Promega), vector pFN10A; also called VP16-PPARγ; VP-16-PPARγ1; source: CV-1 cells, transiently transfected, mammalian two-hybrid fusion
B1 was tested, and the “fold induction of GAL4 promoter-driven luciferase over empty vectors” value was 3 fold.
